Eight molecules from patent US20040023887A1 can be followed below.

Assay [1] has as its target soluble human insulin receptor-immunoglobulin heavy chain chimera (human) (UniProt P06213). Description: phage ELISA.
The target in assay [2] is Insulin receptor prepared according to Bass et al., 1996 (soluble IR-immunoglobulin chimera) (human) (UniProt P06213). Description: phage ELISA; IR ratio divided by IGF-1R ratio. Background: An ELISA detects its analyte on a solid surface through an enzyme-linked reagent.
Assay [3] has the same target. As to the kind of experiment: phage ELISA, receptor coated on plate; A405 over non-fat milk.
Assay [4] deals with His-tagged soluble recombinant human IGF-1R (human), P08069. Description: AlphaScreen competition versus IGF-1 (b-hIGF-1, srhIGF-1R-his). On the technique in general: Bead proximity is the source of the signal in Alpha formats.
Assay [5] concerns the target soluble IGF-1R (recombinant human IGF-1R extracellular domain, R&D Systems Cat. # 391-GR/CF) (human), P08069. As to the kind of experiment: phage ELISA.
The target of assay [6] is soluble human insulin receptor-immunoglobulin heavy chain chimera (human), P06213. Description: phage ELISA.

No end group written: not given here.

On to SQAGSAFYAWFDQVLRTVHSA [20E2Bβ-4-G6-IR], for which, in assay [1], the IR/IGF-1R ratio comparison worked out at 0.3 and the ratio over background was determined as 1.9.

In the case of QPDHSYFYSLLQELVGSEERL [20E2B-4-F9-IGFR], in assay [1], the IR/IGF-1R ratio comparison was determined as 0.1 and the ratio over background turned out to be 1.9.

With YRGMLVLGRISGGAGKAASERPARIGQKVSAVNFYDWFV [A6L-0-E3-IR], in assay [1], the IR/IGF-1R ratio comparison was found to be 0.1 and the ratio over background is 2.

Regarding AGSVTSFYDAMEQLVATGTSA [20E2A-3-A4-IGFR], the IR/IGF-1R ratio comparison in assay [2] is 0.7. Moreover, in assay [3], the ratio over background (IR) (fold over background) was found to be 1.8.

As to RGAVAGFHDQFYDWFDRQVSRVHKFG [H2CA-4-H9-IGFR], in assay [1], the IR/IGF-1R ratio comparison was 0.3 and the ratio over background turned out to be 1.9.

On to TFYSCLASLLTGTPQPNRGPWERCRKK (modifications not checked) [RP6KK], for which the Affin. in assay [4] worked out at 0.19 µM.

Regarding CCTTEMVVMDARDDPFYHKLSELVTGG [B6Hα-1-B5-IR], in assay [1], the IR/IGF-1R ratio comparison came out at 0 and the ratio over background was 1.

B1: 20E2B-2-B11-IGFR (peptide)
peptide: VVTPVNFYRALEALVRGXRLG
modifications: not fully specified; printed as VVTPVNFYRALEALVRG.RLG; X: residue not identified in the source
Turning to B1, in assay [5], the IGF-1R/IR ratio comparison amounted to 9.4 and the ratio over background amounted to 10.6. For the same molecule, in assay [6], the IR/IGF-1R ratio comparison stood at 0.1 and the ratio over background was found to be 1.1.
